Data: article PMC12058244, “Design and Synthesis of ^68Ga‐Labeled Peptide‐Based Heterodimers for Dual Targeting of NTS1 and GRPR” (Chemmedchem, 2025)
Read-outs that look alike come from different tables or passages of the source.

Legend:
[1] = Octanol/water partition coefficient (LogD7.4); format: physicochemical
Experimental: Determination of the Octanol/Water Partition Coefficient (LogD7.4) LogD determination was performed in triplicate and repeated over three radiolabelings. Approximately 3.7 MBq of the ^68Ga‐radiolabeled peptide were added to qsp 500 μL of PBS (Gibco, France, pH=7.4) and 500 μL of octanol (Sigma Aldrich, USA) in microcentrifuge tubes. Tubes were shaken then vortexed and centrifuged at room temperature (3 min, 4000 rpm). 100 μL of each layer were sampled in separate test tubes and measured in a gamma‐counter (Wizard2, PerkinElmer, USA). LogD7.4 value was obtained by calculating the log10 of the ratio between the organic phase activity (cpm) and the aqueous phase activity (cpm). Both activities were decay‐corrected.

NTS1 = conditions: cited from earlier work
Experimental: The design of novel heterodimers was based on SAR studies. […] For this reason, the NT analogue JMV 438 ([Lys^8–Lys^9]NT[8–13]) was widely studied and validated as a positive control (NTS1 K i=4.0 nM, Chart 1).[19] Recently, in the attempt to improve the binding affinity towards NTS1, lipophilic residues were incorporated in the NT[8–13] sequence.[20] Among the new analogues, JMV 2007 (Chart 1), in which a trimethylsilylala ...

## CC[C@H](C)[C@H](NC(=O)[C@H](Cc1ccc(O)cc1)NC(=O)[C@@H]1CCCN1C(=O)[C@H](CCCCN)NC(=O)[C@H](CCCCN)NC(=O)CCNC(=O)CCNC(=O)[C@H](CC(C)C)NC(=O)C[C@H](O)[C@H](CC(C)C)NC(=O)[C@H](Cc1c[nH]cn1)NC(=O)CNC(=O)[C@@H](NC(=O)[C@H](C)NC(=O)[C@H](Cc1c[nH]c2ccccc12)NC(=O)[C@H](CCC(N)=O)NC(=O)[C@@H](Cc1ccccc1)NC(=O)CCNC(=O)CCNC(=O)CN1CCN(CC(=O)O)CCN(CC(=O)O)CCN(CC(=O)O)CC1)C(C)C)C(=O)N[C@@H](CC(C)C)C(=O)O [[^68Ga]Ga‐JMV 7110, metal not drawn]
[1]; pH 7.4
  logD: -2.74 ± 0.21

## CC[C@H](C)[C@H](NC(=O)[C@H](Cc1ccc(O)cc1)NC(=O)[C@@H]1CCCN1C(=O)[C@H](CCCCN)NC(=O)[C@H](CCCCN)NC(=O)CCNC(=O)CCNC(=O)[C@H](CC(C)C)NC(=O)C[C@H](O)[C@H](CC(C)C)NC(=O)[C@H](Cc1c[nH]cn1)NC(=O)CNC(=O)[C@@H](NC(=O)[C@H](C)NC(=O)[C@H](Cc1c[nH]c2ccccc12)NC(=O)[C@H](CCC(N)=O)NC(=O)[C@@H](Cc1ccccc1)NC(=O)CCNC(=O)CCNC(=O)CN1CCN(CC(=O)O)CCN(CC(=O)O)CCN(CC(=O)O)CC1)C(C)C)C(=O)N[C@@H](C[Si](C)(C)C)C(=O)O [[^68Ga]Ga‐JMV 7253, metal not drawn]
[1]; shake-flask octanol/PBS (Gibco) pH 7.4, 500 μL each, ~3.7 MBq 68Ga-peptide, room temperature, centrifuged 3 min 4000 rpm, gamma-counter, triplicate repeated over three radiolabelings, mean±SD, read-out: LogD7.4
  logD: -2.46 ± 0.07

## CC[C@H](C)[C@H](NC(=O)[C@H](Cc1ccc(O)cc1)NC(=O)[C@@H]1CCCN1C(=O)[C@H](CCCCN)NC(=O)[C@H](CCCCN)NC(=O)CCNC(=O)[C@H](CCC(=O)NCCC(=O)NCCC(=O)N[C@H](Cc1ccccc1)C(=O)N[C@@H](CCC(N)=O)C(=O)N[C@@H](Cc1c[nH]c2ccccc12)C(=O)N[C@@H](C)C(=O)N[C@H](C(=O)NCC(=O)N[C@@H](Cc1c[nH]cn1)C(=O)N[C@@H](CC(C)C)[C@@H](O)CC(=O)N[C@@H](CC(C)C)C(N)=O)C(C)C)NC(=O)CCNC(=O)CN1CCN(CC(=O)O)CCN(CC(=O)O)CCN(CC(=O)O)CC1)C(=O)N[C@@H](CC(C)C)C(=O)O [[^68Ga]Ga‐JMV 7266, metal not drawn]
[1]; pH 7.4
  logD: -2.62 ± 0.13

## [Lys^8‐Lys^9‐TMSAla^13]NT[8–13] [JMV 2007, NT[8-13] analogue with TMSAla at position 13]
NTS1
  IC50: 0.02 nM

## [Lys^8–Lys^9]NT[8–13] [JMV 438]
NTS1
  Ki: 4 nM
